Measurements from patent US20220227870A1 (Innovent, published 2022).

T1: human LAG-3 expressed on the surface of cells (293-LAG-3 cells) (human, UniProt P18627 23-525)
T1 construct: whole, on cells; also called HEK293 cells overexpressing LAG-3; CD223
T1 sequence (looked up): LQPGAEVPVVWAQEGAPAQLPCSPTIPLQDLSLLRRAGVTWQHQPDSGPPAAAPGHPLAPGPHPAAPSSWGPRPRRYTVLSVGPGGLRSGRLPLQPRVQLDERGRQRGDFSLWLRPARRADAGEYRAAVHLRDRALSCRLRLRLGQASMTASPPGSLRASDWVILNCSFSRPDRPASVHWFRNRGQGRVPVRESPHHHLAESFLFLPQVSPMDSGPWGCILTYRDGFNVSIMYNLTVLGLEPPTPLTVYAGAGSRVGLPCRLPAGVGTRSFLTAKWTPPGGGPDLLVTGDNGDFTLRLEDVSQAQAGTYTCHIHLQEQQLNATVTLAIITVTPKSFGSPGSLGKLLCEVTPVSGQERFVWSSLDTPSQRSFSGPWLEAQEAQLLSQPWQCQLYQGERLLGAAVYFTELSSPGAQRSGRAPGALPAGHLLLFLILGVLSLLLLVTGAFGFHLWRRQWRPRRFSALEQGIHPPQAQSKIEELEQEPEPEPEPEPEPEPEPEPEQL

B1: anti-CD47 antibody ADI-29341 (antibody, V domains shown)
VH: QVQLQESGPGLVKPSETLSLTCTVSGGSIEHYYWSWIRQPPGKGLEWIGYIYYSGSTNYNPSLKSRVTISVDTSKNQFSLKLSSVTAADTAVYYCARGKTGSAAWGQGTLVTVSS
VL: DIQMTQSPSSVSASVGDRVTITCRASQGISRWLAWYQQKPGKAPKLLIYAASSLQSGVPSRFSGSGSGTDFTLTISSLQPEDFATYYCQQTVSFPITFGGGTKVEIK
notes: captured on an anti-human IgG Fc sensor; also called parent antibody (anti-CD47)
B2: anti-LAG-3/PD-L1 bispecific antibody Kh2NF-PL (bispecific antibody, human IgG1, kappa, L234A L235A)
heavy: not shown
light: not shown
chain: QVQLQESGGGLVQPGGSLRLSCAASAYTISRNSMGWFRQAPGKGLEGVAAIESDGSTSYSDSVKGRFTISLDNSKNTLYLEMNSLRAEDTAVYYCAAPKVGLGPRTALGHLAFMTLPALNYWGQGTLVTVSSQVQLQESGGGLVQPGGSLRLSCAASAYTISRNSMGWFRQAPGKGLEGVAAIESDGSTSYSDSVKGRFTISLDNSKNTLYLEMNSLRAEDTAVYYCAAPKVGLGPRTALGHLAFMTLPALNYWGQGTLVTVSSDKTHTCPPCPAPEAAGGPSVFLFPPKPKDTLMISRTPEVTCVVVDVSHEDPEVKFNWYVDGVEVHNAKTKPREEQYNSTYRVVSVLTVLHQDWLNGKEYKCKVSNKALPAPIEKTISKAKGQPREPQVCTLPPSRDELTKNQVSLSCAVKGFYPSDIAVEWESNGQPENNYKTTPPVLDSDGSFFLVSKLTVDKSRWQQGNVFSCSVMHEALHNHYTQKSLSLSPG
notes: Triple-chain antibody; Fc with LALA and knob-in-hole mutations

Experiments:
[1] = target: T2, h CD47 (Acrobiosystems) (human, UniProt Q08722 19-139); test: ForteBio Octet BLI; antibody loaded on AHC sensor, h CD47 100 nM in solution
T2 construct: Bought soluble antigen; also called CD47 protein in solution
Experimental: (§1) The anti-human IgG Fc biosensor AHC was immersed in each well containing the antibody solution, and immersed at room temperature for 600 seconds to load the samples. The sensor was then washed in SD buffer until it returned to the baseline, and then immersed in a well containing 100 μL of the antigen solution to monitor the association of the antibody with the antigen. The sensor was then transferred to a well containing 100 ul of SD buffer to monitor the antibody dissociation. The rotation speed was 400 rpm and the temperature was 30° C. The background-corrected association and dissociation curves were plotted by the Octet analysis software (ForteBio) to generate the association (k_{∞}) rate constant and dissociation (kdis) rate constant, which are then used to calculate the equilibrium dissociation constant (KD).

[2] = target: T3, human CD47 expressed on the surface of cells (CHO-S-CD47 cells) (human, UniProt Q08722 19-323); test: FACS on CHO-S cells overexpressing human CD47, PE-conjugated anti-human Fc detection, MFI
T3 construct: whole, on cells; also called CHO-S cells overexpressing CD47; CHO-CD47
Experimental: The cell suspension was centrifuged at 400 g on a centrifuge for 5 minutes to remove the cell medium. […] The cell suspension was centrifuged at 400 g for 5 minutes, and then the supernatant was removed, and the cells were washed with PBS to remove the unbound antibodies. The obtained cell suspension was centrifuged at 400 g for 5 minutes to remove PBS. 100 μL of the solution of PE-conjugated anti-human Fc antibody (Jackson Immuno Research) diluted at a ratio of 1:200 was added to each well, and the cells were incubated in the dark on the ice for 30 minutes. Then the cell suspension was centrifuged at 400 g for 5 minutes and the supernatant was removed. The cells were washed with PBS to remove the unbound PE-conjugated anti-human Fc antibody. The cells were resuspended with 100 μL of PBS, and the binding of the antibodies to cells was assayed by FACS.

[3] = target: T4, rh PD-L1 (Acrobiosystems) (human, UniProt Q9NZQ7 19-238); test: ForteBio Octet BLI; antibody loaded on AHC sensor, antigen 100 nM in solution; note: N.B: Not detectable
T4 construct: Bought soluble antigen; also called PD-L1 protein in solution
Experimental: as §1

[4] = target: T5, tumor cells H292 (ATCC), co-incubated with human red blood cells; test: flow cytometry; CFSE-labelled H292 cells co-incubated 1:20 with human red blood cells; antibody 0.014 nM
T5 construct: also called H292 cells
Experimental: (§2) The mixture was then gently added to 4 tubes each with 12.5 ml of FiColl (Thermo). The samples were centrifuged at 400 g for 30 min with zero deceleration. The upper serum and PBMC were removed to obtain red blood cells in the lowest layer.
(§3) Tumor cells H292 (ATCC) were fluorescently labeled with fluorochrome CFSE according to the instructions of CellTrace™ CFSE Cell Proliferation Kit (Invitrogen, catalog number: C34554). The labeled tumor cells were co-cultured with the aforementioned isolated human red blood cells at a ratio of 1:20 in terms of cell number, and meanwhile, tested antibody solutions of different concentrations were added. The cells were incubated at 4° C. for 30 min. […] The cells were washed at least twice with PBS and analyzed by flow cytometry.

[5] = target: T5, tumor cells H292 (ATCC), co-incubated …; test: flow cytometry; CFSE-labelled H292 cells co-incubated 1:20 with human red blood cells; antibody 0.041 nM
Experimental: as §3

[6] = target: T5, tumor cells H292 (ATCC), co-incubated …; test: flow cytometry; CFSE-labelled H292 cells co-incubated 1:20 with human red blood cells; antibody 0.123 nM
Experimental: as §3

[7] = target: T5, tumor cells H292 (ATCC), co-incubated …; test: flow cytometry; CFSE-labelled H292 cells co-incubated 1:20 with human red blood cells; antibody 0.370 nM
Experimental: as §2, §3

[8] = target: T5, tumor cells H292 (ATCC), co-incubated …; test: flow cytometry; CFSE-labelled H292 cells co-incubated 1:20 with human red blood cells; antibody 1.111 nM
Experimental: as §3

[9] = target: T5, tumor cells H292 (ATCC), co-incubated …; test: flow cytometry; CFSE-labelled H292 cells co-incubated 1:20 with human red blood cells; antibody 3.333 nM
Experimental: as §2, §3

[10] = target: T5, tumor cells H292 (ATCC), co-incubated …; test: flow cytometry; CFSE-labelled H292 cells co-incubated 1:20 with human red blood cells; antibody 10.000 nM
Experimental: as §2, §3

[11] = target: T6, human PD-L1 expressed on the surface of cells (CHO-S-PD-L1 cells) (human, UniProt Q9NZQ7 19-290); test: FACS on CHO-S cells overexpressing human PD-L1, PE-conjugated anti-human Fc detection, MFI
T6 construct: whole, on cells; also called CHO-S cells overexpressing PD-L1; PD-L1 aAPC/CHO-K1 cells
Experimental: In short, CHO-S-PD-L1 cells were counted, and the cell suspension was diluted to 1×10⁶ cells/ml with cell medium, and then added to a U-bottom 96-well plate at 100 μl/well. The cell suspension was centrifuged at 400 g on a centrifuge for 5 minutes to remove the cell medium. […] The cell suspension was centrifuged at 400 g for 5 minutes, and then the supernatant was removed, and the cells were washed with PBS to remove the unbound antibodies. The obtained cell suspension was centrifuged at 400 g for 5 min to remove PBS. 100 μl of the solution of PE-conjugated anti-human Fc antibody (Jackson Immuno Research) diluted at a ratio of 1:200 was added to each well, and the cells were incubated in the dark on the ice for 30 min. Then the cell suspension was centrifuged at 400 g for 5 min and the supernatant was removed. The cells were washed with PBS to remove the unbound PE-conjugated anti-human Fc antibody. The cells were resuspended with 100 μl of PBS, and the binding of the antibodies to cells was assayed by FACS.

[12] = target: T1, human LAG-3 expressed on the surface of …; test: FACS on HEK293 cells overexpressing human LAG-3, PE-conjugated anti-human Fc detection, MFI

Kd [1]	koff [1]	kon [1]	EC50 (read off the curve) [2]	binding result [3]	proportion of antibody binding to H292 cells [4]	proportion of antibody binding to H292 cells [5]	proportion of antibody binding to H292 cells [6]	proportion of antibody binding to H292 cells [7]	proportion of antibody binding to H292 cells [8]	proportion of antibody binding to H292 cells [9]	proportion of antibody binding to H292 cells [10]	EC50 (read off the curve) [11]	EC50 (read off the curve) [12]	Binder
2.32 nM	0.0018 s⁻¹	774000 M⁻¹ s⁻¹	~1 nM	no binding (tested: 100 nM)	3.59%	17.7%	5.74%	14.4%	6.15%	8.42%	3.9%	–	–	B1
–	–	–	–	–	–	–	–	–	–	–	–	~1 nM	~1 nM	B2
